This note sets out measurements from patent US20250145723A1 (MINGHUI PHARMACEUTICAL HANGZHOU, published 2025).

Where a chain is given by its changes, count along the chain named. Read-outs that look alike come from different tables or passages of the source.

The target of assay [1] is T1, recombinant human IGF-1R-his (human, UniProt P08069 31-932).
T1 construct: Recombinant his-tagged protein; also called hIGF-1R-his; hIGF1R-his; not shown: his tag
Briefly: competition ELISA, coated hIGF-1R-his, competitor IGF-1-Fc 1.25 µg/mL. As for the experimental part: Recombinant human IGF-1R-his antigens (5 μg/mL) were added to a 96-well plate for coating overnight at 4° C. The plate was washed with PBS, and then was blocked with 1% casein at room temperature for 1 h. The VHH samples were diluted 2-fold serially with 0.1% BSA/PBS, with a starting concentration of 20 μg/mL. […] The plate was washed three times with 0.1% PBST, horseradish peroxidase-labeled anti-human Fc tag antibodies (anti-human IgG-HRP, Abcam ab6759, 1:5,000, containing 1% casein) were added and incubated at room temperature for 30 min, and the plate was washed three times with 0.1% PBST. A TMB substrate solution (Thermo, 34028) was added for color development, the OD₄₅₀ was read using a microplate reader, and a curve was fit and the EC₅₀ value was calculated using Graphpad Prism software.

The target in assay [2] is T2, recombinant mouse IGF-1R-his (mouse, UniProt Q60751 31-933).
T2 construct: not shown: his tag
Briefly: ELISA, coated antigen 5 µg/mL. As for the experimental part: (§1) Recombinant human, monkey and mouse IGF-1R-his antigens and human insulin receptor proteins (5 μg/mL) were added to a 96-well plate for coating overnight at 4° C. The plate was washed with PBS, and then was blocked with 1% casein at room temperature for 1 h. The nanobody-Fc fusion proteins were diluted to 2 μg/mL with 0.1% BSA/PBS, added to the antigen-coated 96-well plate, and incubated at room temperature for 1 hour. The plate was washed three times with 0.1% PBST, horseradish peroxidase-labeled anti-human Fc tag antibodies (anti-human IgG-HRP, Abcam ab6759, 1:5,000, containing 1% casein) were added and incubated at room temperature for 30 min, and the plate was washed three times with 0.1% PBST. A TMB substrate solution (Thermo, 34028) was added for color development, and the OD₄₅₀ was read using a microplate reader.
(In general: In an ELISA, binding on a coated surface is turned into a signal by an enzyme label.)

Assay [3] has as its target T3, human insulin receptor protein (human, UniProt P06213-2 28-944, limits assumed).
T3 construct: also called human insulin receptor proteins
The assay can be described thus: ELISA, coated antigen 5 µg/mL. As for the experimental part:
as §1

Assay [4] deals with T1, recombinant human IGF-1R-his. Briefly: competition ELISA, coated hIGF-1R-his, competitor biotinylated IGF-1. On the procedure: Recombinant human IGF1R-his antigen (5 μg/mL) was added to a 96-well plate for coating overnight at 4° C. The plate was washed 4 times with 1×TBST, and then was blocked with 2% BSA at room temperature for 1.5 h. The plate was washed four times with 1×TBST, and 50 μL of nanobody-Fc fusion proteins of different concentrations (with a starting concentration of 10 μg/mL, 2-fold serially diluted) and 50 μL of biotinylated IGF-1 ([…]) were added to the antigen-coated 96-well plate and incubated at 37° C. for 1 h. The plate was washed 4 times with 1×TBST, horseradish peroxidase-labeled Streptavidin (Thermo, 21126) was added and incubated at 37° C. for 1 h, and the plate was washed 4 times with 1×TBST. TMB substrate solution was added at 200 μL per well for color development in the dark for 20 min, 50 μL of 1 M H₂SO₄ was added to terminate the reaction, and the OD₄₅₀ was read using a microplate reader. A curve was fit and the IC₅₀ value was calculated using Graphpad Prism software.

Assay [5] has the same target. Briefly: ELISA, coated hIGF-1R-his. As for the experimental part: Recombinant human IGF-1R-his antigens (2 μg/mL) were added to a 96-well plate for coating overnight at 4° C. The plate was washed three times with PBST, and then was blocked with PBST containing 5% skimmed milk powder at room temperature for 2 h. The blocking solution was discarded, the plate was washed three times with PBST, and then 30 μL of nanobody-Fc fusion proteins of different concentrations were added and incubated at room temperature for 1 h. The plate was washed 3 times with PBST, horseradish peroxidase-labeled anti-human Fc antibodies (abcam, ab97225) were added at 30 μL/well and incubated at room temperature for 1 h, and the plate was washed 3 times with PBST. TMB substrate solution was added at 30 μL/well for color development in the dark for 5-30 min, 30 μL of 2 M H₂SO₄ was added to terminate the reaction, and the OD₄₅₀ was read using a microplate reader. A curve was fit and the EC₅₀ value was calculated using Graphpad Prism software.

Assay [6] has the same target. The assay can be described thus: competition ELISA, coated hIGF-1R-his, competitor IGF-2 (N-Avi & N-Fc). As for the experimental part:
(§2) Recombinant human IGF-1R-his antigens (5 μg/mL) were added to a 96-well plate for coating overnight at 4° C. The plate was washed 4 times with 1×TBST, and then was blocked with 2% BSA at 37° C. for 1.5 h. The plate was washed four times with 1×TBST. A volume of 50 μL of biotinylated IGF-1-Fc (2.5 μg/mL) or IGF-2 (N-Avi & N-Fc 4 μg/mL), and 50 μL of nanobody-Fc fusion proteins of different concentrations (with a starting concentration of 10 μg/mL, 2-fold serially diluted) were added to the 96-well plate and incubated at 37° C. for 1 h. The plate was washed 4 times with 1×TBST, horseradish peroxidase-labeled Streptavidin (Thermo, 21126) was added and incubated at 37° C. for 1 h, and the plate was washed 4 times with 1×TBST. TMB substrate solution was added at 200 μL/well for color development in the dark for 20 min, 50 μL of 1 M H₂SO₄ was added to terminate the reaction, and the OD₄₅₀ was read using a microplate reader. A curve was fit and the IC₅₀ value was calculated using Graphpad Prism software.

Assay [7] shares this target. The assay can be described thus: competition ELISA, coated hIGF-1R-his, competitor biotinylated IGF-1-Fc. As for the experimental part: as §2
Assay [8] addresses human IGF-1R on BaF3 cells overexpressing human IGF-1R (human) (UniProt P08069). Briefly: cell-based or functional assay.
The target in assay [9] is T1, recombinant human IGF-1R-his. The assay can be described thus: ELISA, coated hIGF-1R-his. On the procedure: The binding activity of the nanobody-Fc fusion proteins obtained after two rounds of mutant construction with the antigen proteins (recombinant human IGF-1R-His) was detected by an ELISA method: 2 μg/mL recombinant human IGF1R-His antigen proteins were added to a 96-well ELISA plate, at 30 μL/well, for coating overnight at 4° C. The plate was washed three times with PBST. PBS containing 5% skim milk powder was added for blocking at room temperature for 2 h. The plate was washed three times with PBST. The nanobody-Fc fusion proteins were serially diluted 3-fold, and the nanobody-Fc fusion proteins of different concentrations were added to each well at 30 μL/well and incubated at room temperature for 1 h. The plate was washed three times with PBST, and horseradish peroxidase-labeled anti-human Fc antibodies were added at 30 μL/well and incubated at room temperature for 50 min. The plate was washed three times with PBST. TMB substrate solution was added at 30 μL/well for color development in the dark for 1-5 min, 30 μL of 2 M hydrochloric acid was added to terminate the reaction, and the OD₄₅₀ was read using a microplate reader. Curve fitting was conducted and the EC₅₀ value was calculated using Graphpad Prism software.
The source holds these as a separate data set.

For assay [10] the target is unchanged. Briefly: SPR (BIAcore), hIGF-1R-his on CM5 chip, Test 1. On the procedure:
The affinity of the nanobody fusion proteins to recombinant human IGF-1R was detected using a BIAcore instrument. […] The flow rate was set to 10 μL/min. The chip activation time of a mixture of EDC and NHS was the default value of 420 s. The recombinant human IGF-1R-his was coupled to 800 RU on a CM5 chip under the preset coupling mode, and unbound activated groups were blocked with ethanolamine. Two-fold serially diluted nanobody-Fc fusion proteins (five concentrations of each fusion protein were detected) were injected sequentially at a flow rate of 50 μL/min at 25° C., with an association time of 120 s and a dissociation time of 600 s. A curve was fit with a 1:1 Langmuir binding model using the BIAcore T200 analysis software to determine kinetic constants such as the association rate constant, the dissociation rate constant, and the association dissociation constant.
On the technique in general: SPR reads the build-up and loss of mass on a sensor chip optically.

T1 sequence (P08069 31-932 limits assumed): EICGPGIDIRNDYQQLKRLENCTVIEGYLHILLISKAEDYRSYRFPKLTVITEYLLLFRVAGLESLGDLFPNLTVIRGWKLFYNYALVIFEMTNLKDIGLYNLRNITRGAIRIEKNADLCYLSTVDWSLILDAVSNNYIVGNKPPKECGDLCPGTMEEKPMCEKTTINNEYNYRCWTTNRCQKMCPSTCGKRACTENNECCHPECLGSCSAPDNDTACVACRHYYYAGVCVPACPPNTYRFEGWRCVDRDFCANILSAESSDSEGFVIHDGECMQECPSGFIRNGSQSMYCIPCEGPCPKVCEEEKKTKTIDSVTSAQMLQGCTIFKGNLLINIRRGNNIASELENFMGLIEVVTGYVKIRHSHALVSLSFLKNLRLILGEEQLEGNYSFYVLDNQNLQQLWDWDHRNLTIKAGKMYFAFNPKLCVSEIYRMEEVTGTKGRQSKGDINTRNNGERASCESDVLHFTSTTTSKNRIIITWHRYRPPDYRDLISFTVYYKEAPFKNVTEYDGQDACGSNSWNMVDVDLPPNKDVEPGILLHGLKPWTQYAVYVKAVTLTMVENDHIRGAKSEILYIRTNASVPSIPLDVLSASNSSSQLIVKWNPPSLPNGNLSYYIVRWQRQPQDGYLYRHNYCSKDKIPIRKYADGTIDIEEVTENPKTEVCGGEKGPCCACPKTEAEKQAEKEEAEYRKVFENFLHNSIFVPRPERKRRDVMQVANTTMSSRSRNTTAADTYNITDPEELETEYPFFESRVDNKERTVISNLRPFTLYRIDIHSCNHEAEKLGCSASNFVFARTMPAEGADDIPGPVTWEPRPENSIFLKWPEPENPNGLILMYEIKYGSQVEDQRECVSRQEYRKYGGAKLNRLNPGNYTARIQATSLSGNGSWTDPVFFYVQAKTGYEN
T2 sequence (Q60751 31-933 limits assumed): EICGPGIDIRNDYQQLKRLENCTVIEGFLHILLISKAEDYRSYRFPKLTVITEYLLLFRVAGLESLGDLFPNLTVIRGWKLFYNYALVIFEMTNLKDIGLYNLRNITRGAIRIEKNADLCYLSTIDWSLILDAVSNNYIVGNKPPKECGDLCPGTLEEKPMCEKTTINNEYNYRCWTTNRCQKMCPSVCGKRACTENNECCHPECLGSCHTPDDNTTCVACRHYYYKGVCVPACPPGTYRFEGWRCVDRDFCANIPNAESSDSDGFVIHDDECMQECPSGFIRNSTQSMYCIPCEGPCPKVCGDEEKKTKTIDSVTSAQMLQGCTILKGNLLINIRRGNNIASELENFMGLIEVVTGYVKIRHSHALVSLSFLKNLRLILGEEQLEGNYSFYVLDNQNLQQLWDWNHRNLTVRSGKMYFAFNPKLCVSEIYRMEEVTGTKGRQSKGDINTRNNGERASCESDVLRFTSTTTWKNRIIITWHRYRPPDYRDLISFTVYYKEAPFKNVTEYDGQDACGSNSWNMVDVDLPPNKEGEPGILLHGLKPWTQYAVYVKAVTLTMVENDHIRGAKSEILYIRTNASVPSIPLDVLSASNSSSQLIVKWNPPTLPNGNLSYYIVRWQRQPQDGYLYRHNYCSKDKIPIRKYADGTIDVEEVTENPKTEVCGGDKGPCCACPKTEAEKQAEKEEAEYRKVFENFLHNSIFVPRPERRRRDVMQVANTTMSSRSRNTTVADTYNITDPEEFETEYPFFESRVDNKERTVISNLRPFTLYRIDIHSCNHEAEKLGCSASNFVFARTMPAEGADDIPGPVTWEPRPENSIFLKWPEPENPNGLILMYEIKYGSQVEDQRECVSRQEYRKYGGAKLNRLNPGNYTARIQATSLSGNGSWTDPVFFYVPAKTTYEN
T3 sequence (P06213 other isoform, or with tags, fused parts or gaps limits assumed): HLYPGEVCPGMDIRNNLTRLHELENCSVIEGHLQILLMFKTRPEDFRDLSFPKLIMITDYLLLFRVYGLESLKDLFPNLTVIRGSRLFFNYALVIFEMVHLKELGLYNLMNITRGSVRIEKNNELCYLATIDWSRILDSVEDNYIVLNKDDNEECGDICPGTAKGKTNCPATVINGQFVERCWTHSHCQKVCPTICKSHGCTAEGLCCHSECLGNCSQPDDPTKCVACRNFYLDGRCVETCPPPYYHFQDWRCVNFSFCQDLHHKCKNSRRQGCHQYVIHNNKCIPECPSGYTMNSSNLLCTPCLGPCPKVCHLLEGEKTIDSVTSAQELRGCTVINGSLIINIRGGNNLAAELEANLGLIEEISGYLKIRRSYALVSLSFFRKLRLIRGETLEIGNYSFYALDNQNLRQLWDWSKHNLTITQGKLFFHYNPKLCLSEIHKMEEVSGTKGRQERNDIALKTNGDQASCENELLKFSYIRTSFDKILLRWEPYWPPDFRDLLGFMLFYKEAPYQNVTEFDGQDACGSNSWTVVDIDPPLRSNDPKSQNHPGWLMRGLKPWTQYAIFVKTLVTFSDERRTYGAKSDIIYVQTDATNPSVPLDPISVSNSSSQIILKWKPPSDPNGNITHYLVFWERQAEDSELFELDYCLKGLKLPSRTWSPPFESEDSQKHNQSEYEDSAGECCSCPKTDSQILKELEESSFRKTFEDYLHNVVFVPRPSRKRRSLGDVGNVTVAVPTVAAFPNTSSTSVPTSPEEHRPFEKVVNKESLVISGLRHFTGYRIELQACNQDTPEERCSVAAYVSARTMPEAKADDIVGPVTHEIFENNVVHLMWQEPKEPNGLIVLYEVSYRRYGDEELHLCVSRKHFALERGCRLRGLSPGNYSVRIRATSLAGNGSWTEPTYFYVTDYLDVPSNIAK
Chain of human IGF-1R on BaF3 cells overexpressing human IGF-1R (human) (P08069 31-1367): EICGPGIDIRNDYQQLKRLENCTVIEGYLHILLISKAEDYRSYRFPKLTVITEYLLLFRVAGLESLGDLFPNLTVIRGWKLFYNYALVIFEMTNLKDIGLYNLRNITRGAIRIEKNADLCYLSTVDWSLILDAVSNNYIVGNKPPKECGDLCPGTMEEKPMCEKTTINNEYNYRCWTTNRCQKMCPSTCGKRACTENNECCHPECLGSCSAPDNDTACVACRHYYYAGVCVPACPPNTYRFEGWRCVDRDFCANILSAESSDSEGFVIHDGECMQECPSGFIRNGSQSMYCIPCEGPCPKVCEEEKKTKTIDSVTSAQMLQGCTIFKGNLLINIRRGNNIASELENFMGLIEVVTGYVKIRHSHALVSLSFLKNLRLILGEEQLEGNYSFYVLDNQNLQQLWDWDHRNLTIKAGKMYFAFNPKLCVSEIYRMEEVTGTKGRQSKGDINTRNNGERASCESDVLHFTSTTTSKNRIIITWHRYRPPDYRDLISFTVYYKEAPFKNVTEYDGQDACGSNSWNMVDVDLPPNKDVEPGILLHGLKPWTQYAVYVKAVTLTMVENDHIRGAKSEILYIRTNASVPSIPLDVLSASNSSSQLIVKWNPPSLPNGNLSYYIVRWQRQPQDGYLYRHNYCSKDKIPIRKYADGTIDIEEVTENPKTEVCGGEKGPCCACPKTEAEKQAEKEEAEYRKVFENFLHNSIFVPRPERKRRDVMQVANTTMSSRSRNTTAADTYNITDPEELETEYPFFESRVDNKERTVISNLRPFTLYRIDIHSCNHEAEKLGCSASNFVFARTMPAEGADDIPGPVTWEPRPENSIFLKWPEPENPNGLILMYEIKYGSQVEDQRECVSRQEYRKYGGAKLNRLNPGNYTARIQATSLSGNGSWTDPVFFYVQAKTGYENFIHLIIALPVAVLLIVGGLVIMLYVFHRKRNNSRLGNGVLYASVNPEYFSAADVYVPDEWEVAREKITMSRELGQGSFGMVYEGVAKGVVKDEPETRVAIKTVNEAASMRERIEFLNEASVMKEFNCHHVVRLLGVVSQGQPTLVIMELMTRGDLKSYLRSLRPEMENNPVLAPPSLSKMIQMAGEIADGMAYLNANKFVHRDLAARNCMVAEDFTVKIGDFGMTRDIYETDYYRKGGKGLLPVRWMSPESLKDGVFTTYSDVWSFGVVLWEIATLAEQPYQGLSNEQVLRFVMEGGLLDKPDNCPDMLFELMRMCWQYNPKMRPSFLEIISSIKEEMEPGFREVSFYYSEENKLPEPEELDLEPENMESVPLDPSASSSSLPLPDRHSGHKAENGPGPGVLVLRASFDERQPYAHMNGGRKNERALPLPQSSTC

B1: nanobody 5115 (VHH) (VHH)
VHH: EVQLVESGGGLVQAGGSLRLSCAVSGRTFSSFVMGWFRQAPGKEREFVAAISGSGSRANYADSVKGRFTVSRDNANNTVYLQMNSLKPDDTALYYCAANPRRATPDYTQYAYWGQGTQVTVSS
For orientation: IC50 means the midpoint of a concentration-inhibition curve. Regarding B1, the IC50 in assay [1] amounted to 0.24 µg/mL.

B2: 5115-Fc fusion protein (Fc fusion)
VHH: B1 VHH
notes: C-terminus of the VHH linked to the N-terminus of human Fc; not shown: The human Fc segment; Any hinge or linker is also unstated
In the case of B2, the binding result in [2] and in assay [3] was “no binding (tested: 2 µg/mL)” in each case. Further, the IC50 in assay [4] turned out to be 0.435 µg/mL.

B3: nanobody 5666 (VHH) (VHH)
VHH: B1 VHH with F32Y, F47L, A58S, N84S, K87R, A92G, P105T
For the molecule B3, in assay [1], the IC50 worked out at 0.7 µg/mL.

B4: 5115-H0-Fc (Fc fusion)
chain: EVQLVESGGGLVQPGGSLRLSCAASGRTFSSFVMSWFRQAPGKEREFVSAISGSGSRAYYADSVKGRFTISRDNSKNTLYLQMNSLRAEDTAVYYCAANPRRATPDYTQYAYWGQGTQVTVSS
notes: Humanized VHH-Fc; Fc not specified; not shown: Fc
In general, EC50 refers to the concentration giving half of the maximal effect. As for B4, the binding result in [2] and in [3] was “no binding (tested: 2 µg/mL)” throughout. Besides, in [5], the concentration giving a half-maximal response (EC50) came out at 0.0327 µg/mL. Moreover, the results for the IC50 in [6] and in assay [7] were 0.177 µg/mL and 0.236 µg/mL, respectively.

B5: 5115-H4-M34-Fc (Fc fusion)
chain: B4 chain with S35A, E44G, R45L, Y59R, Y107L, Q118L
notes: VHH-Fc; Fc not specified; not shown: Fc
What is called Kd is the equilibrium constant for the complex coming apart. In general, koff refers to the rate constant with which the complex falls apart. What is called kon is the second-order rate constant of association. Consider B5, for which the IC50, inhibition of IGF-1-induced proliferation of BaF3 cells overexpressing human IGF-1R in assay [8] amounted to 0.00816 µg/mL; in [8] (record 2), 0.00851 µg/mL. Also, the EC50 in assay [9] is 52 pM. For the same molecule, in assay [10], the Kd came out at 86.2 pM. For the same molecule, the koff in [10] was 0.000274 s⁻¹. In addition, the kon in assay [10] worked out at 3.18e+06 M⁻¹ s⁻¹. In addition, the IC50 was determined as 0.237 µg/mL in assay [6] and 0.269 µg/mL in assay [7].
